Data on two substances can be found in PMC4081048.

The target in this assay is T1, GST-NHERF1-PDZ2 (PDZ2 domain of Na+/H+ exchanger regulatory factor 1 fused to GST).
T1 sequence (O14745 whole entry, species assumed, looked up): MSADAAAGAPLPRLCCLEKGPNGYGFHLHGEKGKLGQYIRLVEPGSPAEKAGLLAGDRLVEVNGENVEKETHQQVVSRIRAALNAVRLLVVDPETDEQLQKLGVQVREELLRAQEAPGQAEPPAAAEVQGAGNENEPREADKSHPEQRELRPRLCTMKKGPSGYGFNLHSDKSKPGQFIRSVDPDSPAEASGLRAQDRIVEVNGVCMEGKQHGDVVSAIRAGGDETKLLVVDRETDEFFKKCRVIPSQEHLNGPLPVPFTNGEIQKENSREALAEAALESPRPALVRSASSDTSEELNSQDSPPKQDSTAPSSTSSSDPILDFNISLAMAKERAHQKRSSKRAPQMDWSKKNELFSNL
Nature of the assay: AlphaScreen or HTRF. For orientation: Alpha assays give light when donor and acceptor beads are brought close together.

The IC50 is the point on the concentration scale where inhibition reaches its midpoint. Read a low IC50 as inhibition by little substance. With “Flag-WT CFTR (cystic fibrosis transmembrane-conductance regulator, wild type) (from UniProt P13569 1-1480) (natural protein)”, the IC50 is 89.3 nM.

Substance “Flag-ΔF508 CFTR (CFTR with deletion of phenylalanine at residue 508) (from UniProt P13569 1-1480) (natural protein)” came in with an IC50 of 442 nM.
